Target: Luciferase-ArgBP2 P1 and EYFP-ArgBP2 P1 (BRET pair)
Experiment: BRET
Details: HEK293T cells, one representative experiment, read off a plot

Luciferase-ArgBP2 WT and EYFP-ArgBP2 WT (BRET pair) P497A; P500A
response (0.10 µg YFP fused protein, parent: est. 510): 190 mBu
response (0.20 µg YFP fused protein, parent: est. 670): 310 mBu
response (0.30 µg YFP fused protein, parent: est. 740): 390 mBu
response (0.40 µg YFP fused protein, parent: est. 790): 490 mBu
response (0.50 µg YFP fused protein, parent: est. 790): 570 mBu

From PMC3903627
